Data published in the supplement of paper PMC10126150.
± gives the standard deviation of the averaged measurements.

Tested on: ATP
Assay: switch fluorescence ratio, 500 uM ATP over buffer (Cy3 cluster intensity, sum of 5 cycles each) (fold (ratio)); higher = stronger signal-on switching upon ATP binding; sequences stand for … in TCGTCGGCAGCGTCAGATGTGTATAAGAGACAGTTTTTTTTTTTTTTTTTTTTTTTTT…TC
Conditions: aptamer strand: ATP DNA aptamer (quencher-CACCTGGGGGAGTATTGCGGAGGAAGG + anchor), 100 nM annealed; ATP concentration: 500 uM
Method in brief: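 Switching-strand clusters labelled with Cy3 on a modified Illumina MiSeq flow-cell were annealed to 100 nM quencher-labelled ATP aptamer, imaged in selection buffer, and re-imaged after 15 min with 500 uM ATP at 22 °C. This was done over five cycles with NaOH stripping and re-annealing in between. The fluorescence ratio is summed target-cycle over summed buffer-cycle Cy3 intensity per cluster, averaged per switch-domain sequence, excluding clusters outside 100-1000 RFU.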
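Note: ATP exposure 15 min at 22 °C before imaging.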

Sequence	switch fluorescence ratio
GAAAGAAAAA	1.09 ± 0.043
GAAAGAGTGA	1.01 ± 0.016
GAAAGGCGGG	0.985 ± 0.0041
GAAAGGGTGT	1.03 ± 0.026
GAAAGGTCGG	1.21 ± 0.27
GAAAGTAAGC	0.993 ± 0.012
GAAAGTAATT	0.996 ± 0.051
GAAAGTAGGA	1.02 ± 0.029
GAAATACTTT	1.03 ± 0.014
GAAATCAGCA	1.03 ± 0.023
GAAATCGGTG	0.995 ± 0.036
GAAATGTACG	1.04 ± 0.021
GAAATGTAGG	0.995 ± 0.034
GAAATTCGGG	0.978 ± 0.025
GAAATTCTAT	0.985 ± 0.033
GAAATTGATG	0.983 ± 0.017
GAAATTTGG	1.01 ± 0.061
GAAATTTTTT	1 ± 0.034
GAACAAAGGG	0.988 ± 0.017
GAACAATGGG	0.977 ± 0.03
GAACACGGTA	1.204 ± 0.0023
GAACATCGGC	1.036 ± 0.0022
GAACCGGGTT	0.9987 ± 0.0079
GAACCGTAAA	1.128 ± 0.0073
GAACCTCGTG	1.03 ± 0.035

Sequence	switch fluorescence ratio
GAACGATGTT	0.9787 ± 0.0032
GAACGCCGGC	0.939 ± 0.034
GAACGGTATG	1.02 ± 0.051
GAACGGTGGG	0.976 ± 0.019
GAACGTCTGC	1.08 ± 0.011
GAACGTGGGT	0.987 ± 0.052
GAACGTTTGG	1.04 ± 0.074
GAACTAGGGC	1.02 ± 0.1
GAACTCGGCT	0.959 ± 0.12
GAACTCTTGT	1.05 ± 0.096
GAACTGCGGA	1.01 ± 0.019
GAAGAAAACA	0.955 ± 0.089
GAAGAACGGG	1.006 ± 0.0036
GAAGATAGGG	0.998 ± 0.011
GAAGATGAAA	0.984 ± 0.017
GAAGATTTGG	0.981 ± 0.04
GAAGCAACCG	1.384 ± 0.01
GAAGCATTTT	1.07 ± 0.045
GAAGCGACTC	2.42 ± 0.03
GAAGCGGTGG	0.954 ± 0.09
GAAGCTTATA	1.251 ± 0.0019
GAAGGAAGAG	1.03 ± 0.025
GAAGGAAGTT	1.01 ± 0.041
GAAGGACGGG	1 ± 0.025
GAAGGAGGGC	0.995 ± 0.085

Sequence	switch fluorescence ratio
GAAGGCACGG	1.04 ± 0.047
GAAGGCACTA	1.03 ± 0.045
GAAGGCATGG	1.03 ± 0.015
GAAGGCCATG	1.016 ± 0.0075
GAAGGCCTAG	0.9763 ± 0.0042
GAAGGCCTTG	1.01 ± 0.025
GAAGGCTCTG	0.9922 ± 0.0071
GAAGGGAGTG	0.986 ± 0.084
GAAGGGATGG	1.08 ± 0.15
GAAGGGATTG	1.02 ± 0.041
GAAGGGCAAG	1.02 ± 0.038
GAAGGGCTGG	0.972 ± 0.022
GAAGGGGAAT	1.003 ± 0.0052
GAAGGGGTGA	1.03 ± 0.053
GAAGGGTCTG	0.969 ± 0.012
GAAGGTGAGG	1.01 ± 0.019
GAAGGTGCGA	1.15 ± 0.052
GAAGGTGTTG	1.036 ± 0.0084
GAAGGTTATA	1 ± 0.047
GAAGGTTCAT	0.961 ± 0.022
GAAGGTTGAG	1.025 ± 0.009
GAAGGTTTGG	0.981 ± 0.03
GAAGTAAAAA	1.01 ± 0.026
GAAGTAAGGA	1.01 ± 0.074
GAAGTAATAG	4.39 ± 0.18

Sequence	switch fluorescence ratio
GAAGTAGAAA	0.9958 ± 0.0016
GAAGTAGGGG	0.977 ± 0.033
GAAGTAGTTA	1.006 ± 0.0082
GAAGTCCATG	1.01 ± 0.014
GAAGTGAGCG	1.028 ± 0.0063
GAAGTGTTGG	1.004 ± 0.0049
GAAGTTAGGG	0.981 ± 0.032
GAAGTTCGGC	1.006 ± 0.0056
GAAGTTGCGA	0.9835 ± 0.0091
GAAGTTTTGG	0.996 ± 0.028
GAAGTTTTGT	1.016 ± 0.0088
GAATACGGTT	1.26 ± 0.44
GAATAGCATA	1.05 ± 0.018
GAATAGGGGA	1.02 ± 0.022
GAATATACCG	1.03 ± 0.042
GAATATACTG	1.05 ± 0.029
GAATATATTT	0.993 ± 0.019
GAATCACAGC	1.02 ± 0.033
GAATCGGCGT	0.991 ± 0.058
GAATCGTAGG	0.986 ± 0.016
GAATCTAGTG	1.019 ± 0.0039
GAATCTTAGG	1.03 ± 0.024
GAATGATGGG	0.987 ± 0.024
GAATGCCGGG	1.03 ± 0.054
GAATGCCTGT	1.033 ± 0.0065
